{"source": "paper PMC10301331", "about": "“Molecular Engineering of E. coli Bacterioferritin: A Versatile Nanodimensional Protein Cage” (Molecules, 2023)", "target": "the molecule itself", "test": "SEC + other: dynamic light scattering; His-tag Bfr (alone or in ratios with WT Bfr) declustered at pH 2.0, incubated with Pro-Q Sapphire 365 NTA dye and Ni2+, reclustered by dialysis to pH 7.0 (methods: pH 8.0), then size exclusion"}
{"protein": "His-tagged Escherichia coli bacterioferritin (C-terminal His-tag) (natural protein, Escherichia coli bacterioferritin (Bfr) subunit; the gene coding for E. coli Bfr was cloned; also called His-tag Bfr; His-tagged Bfr; source: details in Supplementary Materials; not shown: His6 (after a two amino acid linker Leu-Glu), C-terminal, kept; copies: 24) not shown", "values": [{"measurement": "stoichiometry N", "result": 24}]}
